B1: CPEB3 Ribozyme (parent)
chain: UAACAGGGGGCCACAGCAGAAGCGUUCACGUCGCAGCCCCUGUCAGAUUCUGGUGAAUCUGCGAAUUCUGCUGUAUAUCUC

Variants of: B1
Assay: self-cleavage, relative activity (ratio to wild type); higher = more cleavage; in vitro, sequencing
Summary of the method: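 Libraries of CPEB3 self-cleaving ribozyme mutants came from rounds of error-prone PCR and carried barcodes, which DNA sequencing matched to variants. In vitro transcription used T7 RNA polymerase at 37°C for 5 hours, with a further 15 min in DNase I before EDTA stopped the reaction; the ribozymes cleaved during both steps. The RNA was reverse transcribed with template switching and sequenced on Illumina. Relative activity is the cleaved/total read fraction of a variant divided by that of the unmutated ribozyme, averaged over three batches with at least 5 reads.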
Work on UAACAGGGGGCCUCAGCAGAAGCGUUCACGUCGCAGCCCCUGUCAGAUUCUGGUGAAUCUGCGAAUUCUGCUGUGUAUCUC [A13U A75G] yielded a self-cleavage of 1.25.
UAACAGGGGGCCUCAGCAGAAGCGUUCACGUCGCAGCCCCUGUCAGAUUCUGGUGAAUCUGCGAAUUCUGCUGUUUAUCUC [A13U A75U] gave a self-cleavage of 1.28.
With UAACAGGGGGCCUCAGCAGUAGCGUUCACGUCGCAGCCCCUGUCAGAUUCUGGUGAAUCUGCGAAUUCUGCUGUAUAUCUC [A13U A20U] the self-cleavage was 0.54.
For UAACAGGGGGCCUCAGCAGGAGCGUUCACGUCGCAGCCCCUGUCAGAUUCUGGUGAAUCUGCGAAUUCUGCUGUAUAUCUC [A13U A20G], the self-cleavage was 0.93.
With UAACAGGGGGCCUCAGCAGAAGCGUUUACGUCGCAGCCCCUGUCAGAUUCUGGUGAAUCUGCGAAUUCUGCUGUAUAUCUC [A13U C27U] the self-cleavage was 0.24.
UAACAGGGGGCCUCAGCAGAAGCGUUAACGUCGCAGCCCCUGUCAGAUUCUGGUGAAUCUGCGAAUUCUGCUGUAUAUCUC [A13U C27A] showed a self-cleavage of 0.17.
With UAACAGGGGGCCUCAGUAGAAGCGUUCACGUCGCAGCCCCUGUCAGAUUCUGGUGAAUCUGCGAAUUCUGCUGUAUAUCUC [A13U C17U] the self-cleavage was 0.92.
Variant UAACAGGGGGCCUCAGGAGAAGCGUUCACGUCGCAGCCCCUGUCAGAUUCUGGUGAAUCUGCGAAUUCUGCUGUAUAUCUC [A13U C17G] has a self-cleavage of 0.48.
Work on UAACAGGGGGCCGCAGCAGAAGCGUUCACGUCGCAGCCCCUGUCAGAUUCUGGUGAAUCUGCGAAUUCUGCCGUAUAUCUC [A13G U72C] yielded a self-cleavage of 0.8.
Variant UAACAGGGGGCCGCAGCAGAAGCGUUCACGUCGCAGCCCCUGUCAGAUUCUGGUGAAUCUGCGAAUUCUGCAGUAUAUCUC [A13G U72A] has a self-cleavage of 0.54.
In the case of UAACAGGGGGCCGCAGCAGAAGCGUUCACGUCGCAGCCCCUGUCAGAUUCUGGUGAAUCUGCGAAUUCUGCGGUAUAUCUC [A13G U72G], the self-cleavage is reported as 0.46.
Variant UAACAGGGGGCCUUAGCAGAAGCGUUCACGUCGCAGCCCCUGUCAGAUUCUGGUGAAUCUGCGAAUUCUGCUGUAUAUCUC [A13U C14U] has a self-cleavage of 1.26.
In the case of UAACAGGGGGCCGCAGCAGAAGCGUUCACGUCGCAGCCCCUGUCAGAUUCUGGUGAAUCUGCGAAUUCUGCUGUAUAUCGC [A13G U80G], the self-cleavage is reported as 0.75.
Work on UAACAGGGGGCCGCAGCAGAAGCGUUCACGUCGCAGCCCCUGUCAGAUUCUGGUGAAUCUGCGAAUUCUGCUGUAUAUCAC [A13G U80A] yielded a self-cleavage of 1.07.
Work on UAACAGGGGGCCGCAGCAGAAGCGUUCACGUCGCAGCCCCUGUCAGAUUCUGGUGAAUCUGCGAAUUCUGCUGUAUAUCCC [A13G U80C] yielded a self-cleavage of 1.03.
With UAACAGGGGGCCUCAGCAGAAGCGUUCACGUCGCAGCCCCUGUCAGAUUCUGGUGGAUCUGCGAAUUCUGCUGUAUAUCUC [A13U A56G] the self-cleavage was 1.07.
For UAACAGGGGGCCUCAGCAGAAGCGUUCACGUCGCAGCCCCUGUCAGAUUCUGGUGUAUCUGCGAAUUCUGCUGUAUAUCUC [A13U A56U], the self-cleavage was 0.93.
For UAACAGGGGGCCUCAGCAGAAGGGUUCACGUCGCAGCCCCUGUCAGAUUCUGGUGAAUCUGCGAAUUCUGCUGUAUAUCUC [A13U C23G], the self-cleavage was 0.17.
Work on UAACAGGGGGCCUCAGCAGAAGAGUUCACGUCGCAGCCCCUGUCAGAUUCUGGUGAAUCUGCGAAUUCUGCUGUAUAUCUC [A13U C23A] yielded a self-cleavage of 0.33.
Work on UAACAGGGGGCCUCAGCAGAAGUGUUCACGUCGCAGCCCCUGUCAGAUUCUGGUGAAUCUGCGAAUUCUGCUGUAUAUCUC [A13U C23U] yielded a self-cleavage of 0.15.
UAACAGGGGGCCUCAGCGGAAGCGUUCACGUCGCAGCCCCUGUCAGAUUCUGGUGAAUCUGCGAAUUCUGCUGUAUAUCUC [A13U A18G] showed a self-cleavage of 0.87.
Work on UAACAGGGGGCCUCAGCCGAAGCGUUCACGUCGCAGCCCCUGUCAGAUUCUGGUGAAUCUGCGAAUUCUGCUGUAUAUCUC [A13U A18C] yielded a self-cleavage of 0.42.
For UAACAGGGGGCCUCAGCUGAAGCGUUCACGUCGCAGCCCCUGUCAGAUUCUGGUGAAUCUGCGAAUUCUGCUGUAUAUCUC [A13U A18U], the self-cleavage was 0.38.
UAACAGGGGGCCUCAGCAGACGCGUUCACGUCGCAGCCCCUGUCAGAUUCUGGUGAAUCUGCGAAUUCUGCUGUAUAUCUC [A13U A21C] showed a self-cleavage of 0.37.
With UAACAGGGGGCCUCAGCAGAUGCGUUCACGUCGCAGCCCCUGUCAGAUUCUGGUGAAUCUGCGAAUUCUGCUGUAUAUCUC [A13U A21U] the self-cleavage was 0.35.
Work on UAACAGGGGGCCUCAGCAGAGGCGUUCACGUCGCAGCCCCUGUCAGAUUCUGGUGAAUCUGCGAAUUCUGCUGUAUAUCUC [A13U A21G] yielded a self-cleavage of 0.48.
UAACAGGGGGCCGCAGCAGAAGCGUUCACGUCGCAGCCCCUGUCAGAUUCUGGUGAAUCUGCGAAUUCCGCUGUAUAUCUC [A13G U69C] showed a self-cleavage of 0.32.
In the case of UAACAGGGGGCCGCAGCAGAAGCGUUCACGUCGCAGCCCCUGUCAGAUUCUGGUGAAUCUGCGAAUUCGGCUGUAUAUCUC [A13G U69G], the self-cleavage is reported as 0.39.
Work on UAACAGGGGGCCUCAGCAGAAGCGUUCACGUCGCAGCCCCUGUCAGAUUCUGGUGAAUCUGCGAAUUCUGCUGUAUAUCUC [A13U] yielded a self-cleavage of 1.17.
In the case of UAACAGGGGGCCGCAGCAGAAGCGUUCACGUCGCAGCCCCUGUCAGAUUCUGGUGAAUCUGCGAAUUCUGCUGUAUACCUC [A13G U78C], the self-cleavage is reported as 0.94.
UAACAGGGGGCCGCAGCAGAAGCGUUCACGUCGCAGCCCCUGUCAGAUUCUGGUGAAUCUGCGAAUUCUGCUGUAUAACUC [A13G U78A] showed a self-cleavage of 1.01.
With UAACAGGGGGCCUCAGCAGAAGCGUUCACGUCGUAGCCCCUGUCAGAUUCUGGUGAAUCUGCGAAUUCUGCUGUAUAUCUC [A13U C34U] the self-cleavage was 0.43.
In the case of UAACAGGGGGCCUCAGCAGAAGCGUUCACGUCGCAGCCCCUGUCCGAUUCUGGUGAAUCUGCGAAUUCUGCUGUAUAUCUC [A13U A45C], the self-cleavage is reported as 0.38.
Work on UAACAGGGGGCCUCAGCAGAAGCGUUCACGUCGCAGCCCCUGUCGGAUUCUGGUGAAUCUGCGAAUUCUGCUGUAUAUCUC [A13U A45G] yielded a self-cleavage of 1.1.
